Series [1] deals with Egr-1 (full length) (Mus musculus, UniProt P08046 SEQ:1-533). Briefly: cell_activity; activation in NIH3T3; dependent on Egr-1 sites.
In series [2] the target is Egr-1 Δ284-330 (Mus musculus, UniProt P08046 SEQ:1-533, del284-330). The series is described as follows: cell_activity; HeLa, enhanced activation. The procedure: A series of deletion derivatives, each retaining the zinc finger domain, was assayed for transcriptional activity by transient transfection in HeLa and NIH3T3 cells (see FIG. 9). NIH3T3 and HeLa cells were maintained in Dulbecco's modified Eagle's medium (DMEM) with 10% calf serum. Cells were seeded at 8 ×10^5 cells per 100 mm plate the day before transfection. The media was replaced 2 to 6 hours prior to transfection by calcium phosphate-mediated precipitation. Each precipitate included 1 μg of the internal reference pON260, a CMV driven β-galactosidase plasmid (67), or 3 μg of PCH110, a SV40 driven β-galactosidase plasmid (Pharmacia), and remained on the cells for 16–20 hours. Forty-eight hours after transfection, cell extracts were prepared by freeze thaw lysis in 0.25M Tris-HCl 7.8 with protease inhibitors (1mM PMSF, 1 μg/ml Pepstatin A, and […] Leupeptin).
Deletion analyses were performed as described in Example 10, above. […] The enhanced activation seen with deletion A284–330 is consistent with the loss of a region important for repression or negative regulation.

Sequence of Egr-1 Δ284-330 (P08046 other isoform, or with tags, fused parts or gaps del284-330 | mutant): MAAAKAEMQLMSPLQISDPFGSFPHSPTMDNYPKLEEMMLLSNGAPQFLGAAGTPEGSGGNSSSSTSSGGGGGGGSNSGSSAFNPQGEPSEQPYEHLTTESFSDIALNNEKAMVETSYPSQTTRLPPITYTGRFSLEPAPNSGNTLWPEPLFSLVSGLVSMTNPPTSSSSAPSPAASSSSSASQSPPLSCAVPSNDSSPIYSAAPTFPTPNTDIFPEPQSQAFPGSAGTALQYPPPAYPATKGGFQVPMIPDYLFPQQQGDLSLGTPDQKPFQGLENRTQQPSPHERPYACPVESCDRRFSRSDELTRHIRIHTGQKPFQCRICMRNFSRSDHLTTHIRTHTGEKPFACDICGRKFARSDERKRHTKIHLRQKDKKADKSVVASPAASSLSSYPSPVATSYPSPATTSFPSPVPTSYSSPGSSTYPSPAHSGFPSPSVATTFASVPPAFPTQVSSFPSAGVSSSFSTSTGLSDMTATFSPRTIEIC
Sequence of Egr-1 (full length) (P08046 whole entry, the tested form may be a part): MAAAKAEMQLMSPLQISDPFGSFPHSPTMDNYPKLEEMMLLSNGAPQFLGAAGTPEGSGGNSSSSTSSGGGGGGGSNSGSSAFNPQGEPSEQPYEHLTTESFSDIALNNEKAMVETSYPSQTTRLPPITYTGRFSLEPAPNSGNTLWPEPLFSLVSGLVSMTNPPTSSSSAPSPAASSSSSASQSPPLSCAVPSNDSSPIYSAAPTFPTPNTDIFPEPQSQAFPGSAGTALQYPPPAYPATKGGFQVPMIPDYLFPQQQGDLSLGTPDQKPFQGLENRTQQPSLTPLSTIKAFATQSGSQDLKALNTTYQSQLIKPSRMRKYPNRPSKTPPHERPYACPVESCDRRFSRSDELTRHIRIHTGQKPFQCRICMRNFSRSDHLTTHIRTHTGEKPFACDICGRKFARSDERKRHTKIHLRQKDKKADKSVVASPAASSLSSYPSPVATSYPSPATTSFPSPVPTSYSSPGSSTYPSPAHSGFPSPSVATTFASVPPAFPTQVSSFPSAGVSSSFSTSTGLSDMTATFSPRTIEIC

B1: EBS1^3 foscat (3 Egr-1 sites in front of minimal c-fos promoter) (dsDNA)
DNA 1: CGCCCCCGC
DNA 2: GCGGGGGCG
For the molecule B1, the activity in series [1] was 10 fold; in series [2], ~5 fold of wild type.
